Consider nine molecules from patent US20220168396A1, “MULTI-RECEPTOR AGONIST AND MEDICAL USE THEREOF” (published 2022).

Numbered stars: 1 amine (or outer) side, 2 acyl side, 3 side chain; on linkers, the order of the positions; unused ones are H or OH. Square brackets hold non-standard residues; d marks the D form. Side chains are listed from the residue outwards. Ends that are not written are not given here. γGlu = O=C(O)[C@H](CCC(=O)[*:2])N[*:1]; AEEA = NCCOCCOCC(=O)O; Aib = CC(C)(N)C(=O)O

Assay [1] has as its target human glucagon-like peptide-1 receptor (human, UniProt P43220). The experiment in a line: cell-based or functional assay.
The target in assay [2] is T1, human glucose-dependent insulinotropic peptide receptor (human, UniProt P48546).
T1 sequence: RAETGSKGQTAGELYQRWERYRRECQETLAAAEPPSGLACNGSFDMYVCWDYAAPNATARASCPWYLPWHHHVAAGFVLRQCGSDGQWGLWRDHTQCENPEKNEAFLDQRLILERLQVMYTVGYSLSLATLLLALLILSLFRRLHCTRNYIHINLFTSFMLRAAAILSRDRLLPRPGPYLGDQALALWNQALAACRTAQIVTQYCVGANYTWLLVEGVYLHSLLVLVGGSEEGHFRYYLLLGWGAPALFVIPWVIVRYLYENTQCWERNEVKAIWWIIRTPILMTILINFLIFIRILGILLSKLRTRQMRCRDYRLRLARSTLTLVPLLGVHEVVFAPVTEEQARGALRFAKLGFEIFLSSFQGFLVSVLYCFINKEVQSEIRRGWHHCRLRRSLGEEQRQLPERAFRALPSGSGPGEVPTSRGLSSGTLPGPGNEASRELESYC
Nature of the assay: cell-based or functional assay.

B1: Compound No. 29 (peptide)
peptide: H-Y[Aib]EGTFTSDYSIYLEKIAAQEFVNWLLAGKPSSGAPPPS-NH2
modifications: not fully specified (residue 30); printed as H-YAibEGTFTSDYSIYLEKIAAQEFVNWLLAGK(OEG-OEG-yGlu-C18-OH) / PSSGAPPPS-NH2
Regarding B1, the “Activity for human GLP-1R (EC50 nM), cAMP HTRF” value (“Activity for human GLP-1R” for short) in assay [1] was found to be 0.24 nM. For the same molecule, in assay [2], the “Activity for human GIPR (EC50 nM), cAMP HTRF” value (from here on “Activity for human GIPR”) was found to be 0.015 nM.

B2: Compound No. 28 (peptide)
peptide: H-Y[Aib]EGTFTSDYSIYLEKIAAQEFVNWLLAGGPSSGAPPPSK-NH2
modifications: not fully specified (residue 40); printed as H-YAibEGTFTSDYSIYLEKIAAQEFVNWLLAGGPSSGAPPPSK / (OEG-OEG-yGlu-C18-OH)-NH2
B2: the “Activity for human GLP-1R” value in assay [1] came to 0.074 nM. In addition, in assay [2], the “Activity for human GIPR” value stood at 0.02 nM.
Regarding Y[Aib]EGTFTSDYSIYLEKIAAQEFVNWLLAGGPSSGAPPPSK([AEEA-AEEA-γGlu-C20‑OH])-NH2 [Compound No. 74], the “Activity for human GLP-1R” value in assay [1] was 0.068 nM. Besides, the “Activity for human GIPR” value in assay [2] stood at 0.046 nM.

B3: Compound No. 27 (peptide)
peptide: H-Y[Aib]EGTFTSDYSIYLEKEAAKEFVNWLLAGGPSSGAPPPS-NH2
modifications: not fully specified (residue 20); printed as H-YAibEGTFTSDYSIYLEKEAAK(OEG-OEG-yGlu-C18-OH)EFVNWLLAG / GPSSGAPPPS-NH2
Take B3: the “Activity for human GLP-1R” value in assay [1] was found to be 0.12 nM. Further, the “Activity for human GIPR” value in assay [2] worked out at 0.11 nM.
The like results for Y[Aib]EGTFTSDYSIYLDKIAAQEFVNWLLAGGPSSGAPPPSK([AEEA-AEEA-γGlu-C18‑OH])-NH2 [Compound No. 62] were, in that order, 0.32 nM and 0.045 nM.
Take Y[Aib]EGTFTSDYSIYLDKIAAK([AEEA-AEEA-γGlu-C18‑OH])EFVNWLLAGGPSSGAPPPS-NH2 [Compound No. 60]: the “Activity for human GLP-1R” value in assay [1] amounted to 0.2 nM. In assay [2], the “Activity for human GIPR” value was determined as 0.02 nM.
Turning to Y[Aib]EGTFTSDYSIYLEKIAAK([AEEA-AEEA-γGlu-C20‑OH])EFVNWLLAGGPSSGAPPPS-NH2 [Compound No. 75], the “Activity for human GLP-1R” value in assay [1] amounted to 0.2 nM. Further, the “Activity for human GIPR” value in assay [2] amounted to 0.16 nM.

B4: Compound No. 30 (peptide)
peptide: H-Y[Aib]EGTFTSDYSIYLEKIAAKEFVNWLLAGGPSSGAPPPS-NH2
modifications: not fully specified (residue 20); printed as H-YAibEGTFTSDYSIYLEKIAAK(OEG-OEG-yGlu-C18-OH)EFVNWLLAG / GPSSGAPPPS-NH2
For B4, in assay [1], the “Activity for human GLP-1R” value worked out at 0.058 nM. For the same molecule, in assay [2], the “Activity for human GIPR” value was 0.021 nM.

B5: Compound No. 25 (peptide)
peptide: H-Y[Aib]EGTFTSDYSIYLEKEAAKEFVNWLLAGGPSSGAPPPSK-NH2
modifications: not fully specified (residue 40); printed as H-YAibEGTFTSDYSIYLEKEAAKEFVNWLLAGGPSSGAPPPSK / (OEG-OEG-yGlu-C18-OH)-NH2
For B5, the “Activity for human GLP-1R” value in assay [1] was 0.031 nM. In assay [2], the “Activity for human GIPR” value came out at 0.059 nM.
